# Assay results published in publication PMC10786891, “Massively parallel profiling of RNA-targeting CRISPR-Cas13d”.
# T1: EsCas13d, nuclease-dead (Eubacterium siraeum, UniProt B0MS50, R295A;H300A;R849A;H854A)
# T1 sequence: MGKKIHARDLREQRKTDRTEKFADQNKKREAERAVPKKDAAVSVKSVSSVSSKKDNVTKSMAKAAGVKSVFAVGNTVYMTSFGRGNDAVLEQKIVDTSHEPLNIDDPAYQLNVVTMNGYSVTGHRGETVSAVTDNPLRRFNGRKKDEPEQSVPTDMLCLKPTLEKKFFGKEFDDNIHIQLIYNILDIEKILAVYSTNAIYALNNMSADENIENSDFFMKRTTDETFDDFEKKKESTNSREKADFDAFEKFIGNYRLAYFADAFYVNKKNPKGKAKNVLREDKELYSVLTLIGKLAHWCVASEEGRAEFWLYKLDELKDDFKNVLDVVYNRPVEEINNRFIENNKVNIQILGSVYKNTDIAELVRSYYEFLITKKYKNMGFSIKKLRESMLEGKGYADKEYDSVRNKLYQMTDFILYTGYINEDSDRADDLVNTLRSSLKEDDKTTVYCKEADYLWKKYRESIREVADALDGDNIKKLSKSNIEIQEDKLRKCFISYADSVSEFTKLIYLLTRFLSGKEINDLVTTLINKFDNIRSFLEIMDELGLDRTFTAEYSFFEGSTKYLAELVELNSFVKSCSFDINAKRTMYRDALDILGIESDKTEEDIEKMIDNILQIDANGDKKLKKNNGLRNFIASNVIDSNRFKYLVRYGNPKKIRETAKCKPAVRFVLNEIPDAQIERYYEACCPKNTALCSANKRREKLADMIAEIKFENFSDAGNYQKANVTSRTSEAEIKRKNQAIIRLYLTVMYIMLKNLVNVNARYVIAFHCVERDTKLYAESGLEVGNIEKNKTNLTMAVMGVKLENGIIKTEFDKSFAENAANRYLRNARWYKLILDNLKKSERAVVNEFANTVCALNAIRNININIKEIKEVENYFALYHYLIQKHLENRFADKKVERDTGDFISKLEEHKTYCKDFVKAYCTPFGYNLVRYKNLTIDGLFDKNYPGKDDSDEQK
# Molecular target: T1, EsCas13d, nuclease-dead
# Assay: crRNA (strand 1, pre-loaded); Mg2+; 40 mM Tris-HCl pH 7.5, 150 mM NaCl, 6 mM MgCl2, 1 mM DTT, 0.1% Tween-20, 0.2 mg/ml BSA; 25 C; 10 min per concentration, then washed
# Settings: tags: His6-TwinStrep-SUMO cleaved; N-terminal SNAP kept (SNAP-Surface 488); label: 3' end held by stalled T7 RNA polymerase
row,Binder,Kd [nM]
1,"target 1 G15U,A18U (mixed) RNA 1: CACCCGUGCAAAAAUGCAGGGGUCUAAAACUGAGCGGAUAACCUCUCUAUGG RNA 2: GGGAAUGGAUCCACAUCUACGAAUUCGUACCAUUGAUAGGUUAUCCGCUCACCGAGAUCGGAAGAGCACACGU",70 ± 13
2,"target 1 insU 3' of 21,insA 3' of 15 (mixed) RNA 1: CACCCGUGCAAAAAUGCAGGGGUCUAAAACUGAGCGGAUAACCUCUCUAUGG RNA 2: GGGAAUGGAUCCACAUCUACGAAUUCGUACCUAUAGAGAAGGUUAUCCGCUCACCGAGAUCGGAAGAGCACACGU",18.5 ± 1.7
3,"target 1 insG 3' of 16,insC 3' of 12 (mixed) RNA 1: CACCCGUGCAAAAAUGCAGGGGUCUAAAACUGAGCGGAUAACCUCUCUAUGG RNA 2: GGGAAUGGAUCCACAUCUACGAAUUCGUACCAUAGAGGAGGCUUAUCCGCUCACCGAGAUCGGAAGAGCACACGU",47 ± 13
4,"target 1 G13A,A14G (mixed) RNA 1: CACCCGUGCAAAAAUGCAGGGGUCUAAAACUGAGCGGAUAACCUCUCUAUGG RNA 2: GGGAAUGGAUCCACAUCUACGAAUUCGUACCAUAGAGGAGUUAUCCGCUCACCGAGAUCGGAAGAGCACACGU",17.2 ± 1.6
5,"target 1 insC 3' of 17,insC 3' of 11 (mixed) RNA 1: CACCCGUGCAAAAAUGCAGGGGUCUAAAACUGAGCGGAUAACCUCUCUAUGG RNA 2: GGGAAUGGAUCCACAUCUACGAAUUCGUACCAUAGCAGAGGUCUAUCCGCUCACCGAGAUCGGAAGAGCACACGU",80 ± 26
6,"target 1 G13C,C21U (mixed) RNA 1: CACCCGUGCAAAAAUGCAGGGGUCUAAAACUGAGCGGAUAACCUCUCUAUGG RNA 2: GGGAAUGGAUCCACAUCUACGAAUUCGUACUAUAGAGACGUUAUCCGCUCACCGAGAUCGGAAGAGCACACGU",5.6 ± 0.7
7,"target 1 U3A,G13C (mixed) RNA 1: CACCCGUGCAAAAAUGCAGGGGUCUAAAACUGAGCGGAUAACCUCUCUAUGG RNA 2: GGGAAUGGAUCCACAUCUACGAAUUCGUACCAUAGAGACGUUAUCCGCACACCGAGAUCGGAAGAGCACACGU",32.2 ± 3.2
8,"target 1 insU 3' of 12,insA 3' of 8 (mixed) RNA 1: CACCCGUGCAAAAAUGCAGGGGUCUAAAACUGAGCGGAUAACCUCUCUAUGG RNA 2: GGGAAUGGAUCCACAUCUACGAAUUCGUACCAUAGAGAGGUUUAUACCGCUCACCGAGAUCGGAAGAGCACACGU",12.3 ± 0.7
9,"target 1 insC 3' of 22,insA 3' of 13 (mixed) RNA 1: CACCCGUGCAAAAAUGCAGGGGUCUAAAACUGAGCGGAUAACCUCUCUAUGG RNA 2: GGGAAUGGAUCCACAUCUACGAAUUCGUACCCAUAGAGAGAGUUAUCCGCUCACCGAGAUCGGAAGAGCACACGU",13.4 ± 2
10,"target 1 insA 3' of 21,insA 3' of 5 (mixed) RNA 1: CACCCGUGCAAAAAUGCAGGGGUCUAAAACUGAGCGGAUAACCUCUCUAUGG RNA 2: GGGAAUGGAUCCACAUCUACGAAUUCGUACCAAUAGAGAGGUUAUCCGACUCACCGAGAUCGGAAGAGCACACGU",14.3 ± 0.9
11,target 1 complement block 1-8 (mixed) RNA 1: CACCCGUGCAAAAAUGCAGGGGUCUAAAACUGAGCGGAUAACCUCUCUAUGG RNA 2: GGGAAUGGAUCCACAUCUACGAAUUCGUACCAUAGAGAGGUUAAGGCGAGUCCGAGAUCGGAAGAGCACACGU,11.4 ± 0.4
12,"target 1 insG 3' of 22,insA 3' of 21 (mixed) RNA 1: CACCCGUGCAAAAAUGCAGGGGUCUAAAACUGAGCGGAUAACCUCUCUAUGG RNA 2: GGGAAUGGAUCCACAUCUACGAAUUCGUACGCAAUAGAGAGGUUAUCCGCUCACCGAGAUCGGAAGAGCACACGU",27.4 ± 2.6
13,"target 1 C4G,G12A (mixed) RNA 1: CACCCGUGCAAAAAUGCAGGGGUCUAAAACUGAGCGGAUAACCUCUCUAUGG RNA 2: GGGAAUGGAUCCACAUCUACGAAUUCGUACCAUAGAGAGAUUAUCCGGUCACCGAGAUCGGAAGAGCACACGU",3.39 ± 0.29
14,"target 1 insC 3' of 17,insU 3' of 6 (mixed) RNA 1: CACCCGUGCAAAAAUGCAGGGGUCUAAAACUGAGCGGAUAACCUCUCUAUGG RNA 2: GGGAAUGGAUCCACAUCUACGAAUUCGUACCAUAGCAGAGGUUAUCCUGCUCACCGAGAUCGGAAGAGCACACGU",64 ± 8
15,"target 1 A9U,U19C (mixed) RNA 1: CACCCGUGCAAAAAUGCAGGGGUCUAAAACUGAGCGGAUAACCUCUCUAUGG RNA 2: GGGAAUGGAUCCACAUCUACGAAUUCGUACCACAGAGAGGUUUUCCGCUCACCGAGAUCGGAAGAGCACACGU",26.3 ± 2.9
16,"target 1 insA 3' of 13,insG 3' of 8 (mixed) RNA 1: CACCCGUGCAAAAAUGCAGGGGUCUAAAACUGAGCGGAUAACCUCUCUAUGG RNA 2: GGGAAUGGAUCCACAUCUACGAAUUCGUACCAUAGAGAGAGUUAUGCCGCUCACCGAGAUCGGAAGAGCACACGU",5.4 ± 0.5
17,"target 1 insU 3' of 9,insG 3' of 7 (mixed) RNA 1: CACCCGUGCAAAAAUGCAGGGGUCUAAAACUGAGCGGAUAACCUCUCUAUGG RNA 2: GGGAAUGGAUCCACAUCUACGAAUUCGUACCAUAGAGAGGUUAUUCGCGCUCACCGAGAUCGGAAGAGCACACGU",10.6 ± 0.5
18,"target 1 insA 3' of 22,insU 3' of 7 (mixed) RNA 1: CACCCGUGCAAAAAUGCAGGGGUCUAAAACUGAGCGGAUAACCUCUCUAUGG RNA 2: GGGAAUGGAUCCACAUCUACGAAUUCGUACACAUAGAGAGGUUAUCUCGCUCACCGAGAUCGGAAGAGCACACGU",15.3 ± 0.7
19,"target 1 insA 3' of 17,insA 3' of 8 (mixed) RNA 1: CACCCGUGCAAAAAUGCAGGGGUCUAAAACUGAGCGGAUAACCUCUCUAUGG RNA 2: GGGAAUGGAUCCACAUCUACGAAUUCGUACCAUAGAAGAGGUUAUACCGCUCACCGAGAUCGGAAGAGCACACGU",16.1 ± 1.2
20,"target 1 insU 3' of 13,insU 3' of 1 (mixed) RNA 1: CACCCGUGCAAAAAUGCAGGGGUCUAAAACUGAGCGGAUAACCUCUCUAUGG RNA 2: GGGAAUGGAUCCACAUCUACGAAUUCGUACCAUAGAGAGUGUUAUCCGCUCAUCCGAGAUCGGAAGAGCACACGU",14.8 ± 1.7
21,"target 1 insC 3' of 11,insC 3' of 10 (mixed) RNA 1: CACCCGUGCAAAAAUGCAGGGGUCUAAAACUGAGCGGAUAACCUCUCUAUGG RNA 2: GGGAAUGGAUCCACAUCUACGAAUUCGUACCAUAGAGAGGUCUCAUCCGCUCACCGAGAUCGGAAGAGCACACGU",29 ± 4
22,"target 1 insA 3' of 12,insU 3' of 2 (mixed) RNA 1: CACCCGUGCAAAAAUGCAGGGGUCUAAAACUGAGCGGAUAACCUCUCUAUGG RNA 2: GGGAAUGGAUCCACAUCUACGAAUUCGUACCAUAGAGAGGAUUAUCCGCUCUACCGAGAUCGGAAGAGCACACGU",40 ± 5
23,"target 1 insC 3' of 22,insU 3' of 15 (mixed) RNA 1: CACCCGUGCAAAAAUGCAGGGGUCUAAAACUGAGCGGAUAACCUCUCUAUGG RNA 2: GGGAAUGGAUCCACAUCUACGAAUUCGUACCCAUAGAGUAGGUUAUCCGCUCACCGAGAUCGGAAGAGCACACGU",29 ± 10
24,"target 1 C2A,C21A (mixed) RNA 1: CACCCGUGCAAAAAUGCAGGGGUCUAAAACUGAGCGGAUAACCUCUCUAUGG RNA 2: GGGAAUGGAUCCACAUCUACGAAUUCGUACAAUAGAGAGGUUAUCCGCUAACCGAGAUCGGAAGAGCACACGU",38 ± 6
25,"target 1 insC 3' of 20,insG 3' of 11 (mixed) RNA 1: CACCCGUGCAAAAAUGCAGGGGUCUAAAACUGAGCGGAUAACCUCUCUAUGG RNA 2: GGGAAUGGAUCCACAUCUACGAAUUCGUACCACUAGAGAGGUGUAUCCGCUCACCGAGAUCGGAAGAGCACACGU",6.6 ± 0.5
26,"target 1 insA 3' of 5,insG 3' of 4 (mixed) RNA 1: CACCCGUGCAAAAAUGCAGGGGUCUAAAACUGAGCGGAUAACCUCUCUAUGG RNA 2: GGGAAUGGAUCCACAUCUACGAAUUCGUACCAUAGAGAGGUUAUCCGACGUCACCGAGAUCGGAAGAGCACACGU",6.6 ± 0.6
27,"target 1 insA 3' of 19,insA 3' of 17 (mixed) RNA 1: CACCCGUGCAAAAAUGCAGGGGUCUAAAACUGAGCGGAUAACCUCUCUAUGG RNA 2: GGGAAUGGAUCCACAUCUACGAAUUCGUACCAUAAGAAGAGGUUAUCCGCUCACCGAGAUCGGAAGAGCACACGU",37 ± 5
28,"target 1 insU 3' of 21,insU 3' of 4 (mixed) RNA 1: CACCCGUGCAAAAAUGCAGGGGUCUAAAACUGAGCGGAUAACCUCUCUAUGG RNA 2: GGGAAUGGAUCCACAUCUACGAAUUCGUACCUAUAGAGAGGUUAUCCGCUUCACCGAGAUCGGAAGAGCACACGU",21.8 ± 1
